# In patent US20210101970A1 (Pfizer, published 2021):
# T1: cynomolgus monkey CXCR5 (cynomolgus monkey, UniProt P32302 1-372 (human entry))
# T1 construct: also called cynoCXCR5; NHP CXCR5
# T1 chain: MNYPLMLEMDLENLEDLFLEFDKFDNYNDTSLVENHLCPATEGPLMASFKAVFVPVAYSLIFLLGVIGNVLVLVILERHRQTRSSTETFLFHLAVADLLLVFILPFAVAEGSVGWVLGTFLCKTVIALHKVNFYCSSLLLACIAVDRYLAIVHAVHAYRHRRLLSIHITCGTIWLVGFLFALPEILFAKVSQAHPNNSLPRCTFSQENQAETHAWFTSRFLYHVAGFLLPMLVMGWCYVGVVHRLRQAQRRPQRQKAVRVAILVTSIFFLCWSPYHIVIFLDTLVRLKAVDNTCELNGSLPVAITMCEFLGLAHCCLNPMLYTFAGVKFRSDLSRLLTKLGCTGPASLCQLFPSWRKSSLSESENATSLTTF
# B1: 2C9 (reference antibody) (antibody, human IgG1, kappa, V domains shown)
# VH: EVQLVESGGGLVKPGGSLRLSCAASGFTFSTNAMNWVRQAPGKGLERVARIRSKSNNYATYYADSVKDRFTISRDDSKNTLYLQMNSLKTEDTAVYYCVTMIPFAYWGQGTLVTVSS
# VL: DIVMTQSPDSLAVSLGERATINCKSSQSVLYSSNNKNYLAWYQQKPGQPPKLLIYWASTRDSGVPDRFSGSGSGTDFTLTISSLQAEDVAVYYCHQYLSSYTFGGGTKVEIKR
# notes: fucosylated
# Molecular target: T1, cynomolgus monkey CXCR5
# Assay: flow cytometry on cynoCXCR5-300.19 cells
binder,measurement,value
B1,EC50,0.131 nM
